The values that follow come from article PMC11408864.

Assay [1] addresses TDP43 low complexity domain (TDP43-LCD) condensates (UniProt Q13148). In words: co-sedimentation; TDP43-LCD condensates (50 μM) mixed with spin-labeled Httex1(Q46)-35R1 monomers (pre-filtered, 100 kD) or fibrils (sonicated, unbundled), 20 μM starting concentration; 123,000g at 4 °C; Httex1 in pellet and supernatant quantified by EPR.
Assay [2] addresses TDP43-LCD condensates, 2% Alexa Fluor 488 labeled (UniProt Q13148).
Assay [3] addresses TDP43 low complexity domain (TDP43-LCD) condensates (UniProt Q13148).

Where only a bound is given, the exact number is not on record here.

For the substance “Httex1(Q46)-35R1 monomer (domain or fragment)”, in assay [1], the concentration of Httex1(Q46) in the pellet was < 0.3 µM.
Turning to “Httex1(Q46) fibrils, Alexa Fluor 594 labeled (domain or fragment)”, the percent of TDP43-LCD condensates irregularly shaped after 4 h of co-incubation with Httex1(Q46) fibrils (∼10% without fibrils), fluorescence microscopy in assay [2] came out at 60%. Further, in assay [3], the t1/2 of ThT fluorescence of 50 μM TDP43-LCD with 5 μM and 20 μM Httex1(Q46) fibrils (∼4 h and ∼1.5 h; ∼7 h without fibrils) was found to be 4 h.
